Source: publication PMC11931385, “Structural and functional analysis of cancer-associated missense variants in the retinoblastoma protein pocket domain” (The Journal of Biological Chemistry, 2025)
Numbering of substitutions follows the chain as printed. In names and notes the source's numbering stands. No end group written: not given here. TMR = tetramethyl rhodamine dye

T1: Rb^P T664A (human, UniProt P06400 380-788, T664A)
T1 construct: also called variant 50
T1 sequence (looked up): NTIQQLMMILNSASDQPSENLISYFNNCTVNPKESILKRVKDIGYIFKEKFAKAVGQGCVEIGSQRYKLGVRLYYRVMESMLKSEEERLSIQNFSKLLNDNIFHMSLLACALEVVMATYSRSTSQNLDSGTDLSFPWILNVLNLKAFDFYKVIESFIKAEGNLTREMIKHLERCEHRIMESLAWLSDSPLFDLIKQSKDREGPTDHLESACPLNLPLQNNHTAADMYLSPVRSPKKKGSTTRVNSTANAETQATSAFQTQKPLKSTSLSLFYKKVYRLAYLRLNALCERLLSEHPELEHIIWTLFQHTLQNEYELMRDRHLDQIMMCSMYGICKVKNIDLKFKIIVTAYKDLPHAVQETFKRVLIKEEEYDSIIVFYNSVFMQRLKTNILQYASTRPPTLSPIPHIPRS

T2: Rb^P V754G (human, UniProt P06400 380-788, V754G)
T2 construct: also called variant 73
T2 sequence (looked up): T1 sequence (looked up) with A285T, V375G

T3: Rb^P E539D (human, UniProt P06400 380-788, E539D)
T3 construct: also called variant 24
T3 sequence (looked up): T1 sequence (looked up) with E160D, A285T

T4: Rb^P R451H (human, UniProt P06400 380-788, R451H)
T4 construct: also called variant 6
T4 sequence (looked up): T1 sequence (looked up) with R72H, A285T

T5: Rb^P R656Q (human, UniProt P06400 380-788, R656Q)
T5 construct: also called variant 48
T5 sequence (looked up): T1 sequence (looked up) with R277Q, A285T

B1: TMR-E2F1^TD, peptide of the E2F1 transactivation domain (peptide)
peptide: {TMR}-GEGIRDLFDCDFGDLTPLD
notes: also called E2F^TD; source: synthetic peptide, bought: GenScript
B2: TMR-E7^LxCxE, LxCxE peptide of the E7 oncoprotein from HPV (peptide)
peptide: DLYCYEQLN
modifications: also: TMR label, position not given here
notes: source: synthetic peptide, bought: GenScript

What was measured:
Test in all cases: fluorescence polarisation; 37 °C, after the 25 °C reading ramped over 7 min to 37 °C and 2 min incubation; unlabeled Rb^P against 1.5 nM TMR-E2F1^TD or 7.5 nM TMR-E7^LxCxE; 25 mM Tris pH 8.0, 200 mM NaCl, 1 mM DTT, 0.1% Tween-20; apparent Kd
Settings in all cases: both partners purified
Rb^P T664A = biological target: T1, Rb^P T664A
Rb^P V754G = biological target: T2, Rb^P V754G
Rb^P E539D = biological target: T3, Rb^P E539D
Rb^P R451H = biological target: T4, Rb^P R451H
Rb^P R656Q = biological target: T5, Rb^P R656Q

| Binder | Kd (Rb^P T664A) | Kd (Rb^P V754G) | Kd (Rb^P E539D) | Kd (Rb^P R451H) | Kd (Rb^P R656Q) |
| --- | --- | --- | --- | --- | --- |
| B1 | 24 nM | 34 nM | 104 nM | 56 nM | 325 nM |
| B2 | 16 nM | 15 nM | 19 nM | 22 nM | 14 nM |
